What is called IC50 is the concentration that inhibits the measured activity by half. A low value points to greater potency.

Test [1] deals with IL-RI-Fc (a fusion of IL-1RI and Fc). Briefly: phage-displayed dAb; trypsin 100 µg/ml, overnight, 37 C; biopanning on 1 nM IL-1RI-Fc.
Test [2] shares this target. The experiment in a line: phage-displayed dAb; trypsin 10 µg/ml, overnight, 37 C; biopanning on 1 nM IL-1RI-Fc.
The target is the same in test [3]. Briefly: phage-displayed dAb; trypsin 100 µg/ml, overnight, room temp; biopanning on 1 nM IL-1RI-Fc.
Test [4] has the same target. The experiment in a line: phage-displayed dAb; trypsin 100 µg/ml, 1 hr, room temp; biopanning on 1 nM IL-1RI-Fc.
Test [5] has as its target IL-1R1. Briefly: Receptor Binding Assay, inhibition of IL-1 binding to IL-RI.
Test [6] deals with IL-RI-Fc (a fusion of IL-1RI and Fc). Briefly: phage-displayed dAb; trypsin 10 µg/ml, 1 hr, room temp; biopanning on 1 nM IL-1RI-Fc.
The target is the same in test [7]. Briefly: phage-displayed dAb; no trypsin, overnight, 37 C; biopanning on 1 nM IL-1RI-Fc.
Test [8] has the same target. Briefly: phage-displayed dAb; trypsin 10 µg/ml, overnight, room temp; biopanning on 1 nM IL-1RI-Fc.
Test [9] shares this target. Briefly: phage-displayed dAb; no trypsin, 1 hr, room temp; biopanning on 1 nM IL-1RI-Fc.
For test [10] the target is unchanged. Briefly: phage-displayed dAb; no trypsin, overnight, room temp; biopanning on 1 nM IL-1RI-Fc.

IL-RI-Fc (a fusion of IL-1RI and Fc), sequence (P14778 whole entry, the tested form may be a part): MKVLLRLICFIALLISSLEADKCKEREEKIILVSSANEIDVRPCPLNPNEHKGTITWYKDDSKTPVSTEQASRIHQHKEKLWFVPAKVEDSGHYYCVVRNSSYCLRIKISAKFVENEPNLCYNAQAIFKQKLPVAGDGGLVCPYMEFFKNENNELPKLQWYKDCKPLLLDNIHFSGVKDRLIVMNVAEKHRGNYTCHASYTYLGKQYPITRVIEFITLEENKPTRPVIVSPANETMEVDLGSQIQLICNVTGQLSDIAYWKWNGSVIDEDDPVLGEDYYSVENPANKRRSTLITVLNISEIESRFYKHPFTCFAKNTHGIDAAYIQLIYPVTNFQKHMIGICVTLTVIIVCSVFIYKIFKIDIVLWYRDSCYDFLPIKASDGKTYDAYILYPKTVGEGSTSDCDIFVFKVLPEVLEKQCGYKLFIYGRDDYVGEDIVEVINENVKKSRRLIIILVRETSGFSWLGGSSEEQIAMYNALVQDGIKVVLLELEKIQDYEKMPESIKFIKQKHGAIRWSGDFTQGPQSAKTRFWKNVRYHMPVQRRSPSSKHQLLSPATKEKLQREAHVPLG
IL-1R1, sequence (P14778 whole entry, the tested form may be a part): as above

B1: DOM4-130-54 (protein)
VL: DIQMTQSPSSLSASVGDRVTITCRASQDIYLNLDWYQQKPGKAPKLLINFGSELQSGVPSRFSGSGYGTDFTLTISSLQPEDFATYYCQPSFYFPYTFGQGTKVEIKR
Turning to B1, the titre of phage after biopanning in test [1] amounted to 2.04e+06; in test [2], 3.84e+08; in test [3], 2.16e+09; in [4], 1.8e+10; in [6] it was 7.2e+09; in test [7], 7.2e+09. Also, the values for the titre of phage after biopanning in [8], in test [9] and in test [10] were 7.2e+09, 6.6e+09 and 7.8e+09, respectively. Also, the IC50 in test [5] was 0.28 nM.

Source of the values: patent US20100254972A1.
